Reference: article doi:10.1101/2020.06.02.131169 (bioRxiv, 2020)

B1: GlgE of Estrella lausannensis (maltosyl-1-phosphate transferase) (enzyme, UniProt A0A0H5DRC6 1-675, looked up)
chain: MSVSAAEKRQLLTQVKASGSMYTNTLHSIVIQNISPKPEPFGPAKRVLLEQVEVEADIFTDPHTKLEADLIVKAPGLRKTTRIPFHPLVNDRFKAVFVPDTPGTYSFFVEAWVNPAALWQEDLRKKQEARLDLTVDLQIGAALLVEVADLLPPEESVKLLQIAKKLREQKGAEAVAFDPEIARLGRLARPKSRQGVCSQEQEVFVTRKKALFSTWYELFPRSCSGTMRHGTFNDVVAKLPRISRMGFDVLYLPPIHPIGKTKRKGKNNALTALPDDPGSPWAVGSHEGGHDAIQRELGTLADFERLVKEAESLGIEIALDIALQCSPDHPYLKEHPEWFLKRPDGTYQYAENPPKKYEDIIPFHFTEDNKDTLFREILRIFLFWMKRGVRIFRVDNPHTKPFALWEYVIGEVRKVDSGVIFLAEAFTRPKIMHHLARIGFDQSYTYFTWRNTKWELTEYLTELTKTEARNYLRPNFFVNTPDILPESLQWGGRAAFLTRLILAATLSSSYGIYGPAFEQMLSEAVPGKEDYIDSEKYEIKPWDFEKKGTISETIEIVNRIRKENPALQATGNLEFYATDNDYLLAYGKQGPQGESLLIVVNLDHYHTQSGYVTLPLMHLGIQEKEPYLVDDLLSGERYIWEGERNYIQLSPHLVPAHIFRIRPKMLRENNFDYFI

Assays:
[1] = target: bifunctional TreS-Mak of Estrella lausannensis (trehalose synthase-maltokinase) (Estrella lausannensis); test: SEC
SEC = target: the molecule itself; test: SEC

| Molecule | stoichiometry N [1] | stoichiometry N (SEC) |
| --- | --- | --- |
| bifunctional TreS-Mak of Estrella lausannensis (trehalose synthase-maltokinase) (enzyme) | 2 |  |
| B1 |  | 2 |
